Drawing on patent US20120276092A1, this text covers fold change of KD against CNTO 530 for one substance.

For this experiment, the target named is polyhistidine-tagged human FcRn (human) (UniProt P55899). The experiment can be described thus: AlphaScreen competition, pH 6.0, against biotinylated human IgG1 mAb CNTO 6234 on polyHis human FcRn. In general terms: In Alpha technology, singlet oxygen from a donor bead excites a nearby acceptor bead.
Sequence of polyhistidine-tagged human FcRn (human) (P55899 24-297 limits assumed, chain 1 of 2): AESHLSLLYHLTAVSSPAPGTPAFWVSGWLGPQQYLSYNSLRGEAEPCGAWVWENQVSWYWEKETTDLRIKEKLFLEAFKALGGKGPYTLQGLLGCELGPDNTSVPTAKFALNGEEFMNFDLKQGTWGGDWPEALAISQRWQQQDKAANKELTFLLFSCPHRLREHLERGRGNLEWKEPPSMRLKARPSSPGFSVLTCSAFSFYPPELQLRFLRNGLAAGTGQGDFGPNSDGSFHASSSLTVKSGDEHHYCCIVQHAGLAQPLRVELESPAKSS
Sequence of polyhistidine-tagged human FcRn (human) (P61769 21-119 limits assumed, chain 2 of 2, further chain): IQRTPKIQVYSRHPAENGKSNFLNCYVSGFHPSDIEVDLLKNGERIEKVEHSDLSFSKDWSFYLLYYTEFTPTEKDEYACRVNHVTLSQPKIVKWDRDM

With “CNTO 5303 (CNTO 530 T359N/N361T) (from UniProt P01861 116-325) (Fc fusion)”, the fold change of KD against CNTO 530 worked out at 2 fold.
